83 variants from the RNAGym collection of RNA variant scans (doi:10.1021/acssynbio.7b00057) can be followed below.

B1: Pistol ribozyme (parent)
chain: GGGUCGUUGUUCCAUAAUCGCGUGGAUAUGGCACGCAAGUUUCUACCGGGCACCGUAAAUGUCCGACUGGAGCCGUUCGGGCGGCUAUAAACAGACCUCAGGCCCGAAGCGUGGCGGCACCUGCCGCCGGUGGUAAAAAAGAUCGGAAGAGCACACGUCU

The series covers variants of B1. As to the kind of experiment: aptazyme ON/OFF ratio, guanine; higher = stronger switching; co-transcriptional cleavage with and without guanine.
Consider U8G G9C U10C U11A C12G C13U, for which the “aptazyme ON/OFF ratio” value was determined as 1.11.

With U8G G9C U10C U11A C12G C13A, the “aptazyme ON/OFF ratio” value worked out at 1.02.

On to U8G G9C U10C C13G, for which the “aptazyme ON/OFF ratio” value came out at 1.04.

Turning to U8G G9C U10C C13U, the “aptazyme ON/OFF ratio” value stood at 1.07.

With U8G G9C U10C C13A, the “aptazyme ON/OFF ratio” value amounted to 1.03.

In the case of U8G G9C U10G U11C C12G C13A, the “aptazyme ON/OFF ratio” value was determined as 1.08.

Turning to U8G G9C U10G U11C C12G C13G, the “aptazyme ON/OFF ratio” value stood at 1.05.

As for U8G G9C U10G U11C C12G C13U, the “aptazyme ON/OFF ratio” value worked out at 1.08.

As to U8G G9C U11A C12A C13G, the “aptazyme ON/OFF ratio” value worked out at 1.05.

As to U8G G9C U11A C12A C13A, the “aptazyme ON/OFF ratio” value amounted to 1.07.

As to U8G G9C U11A C12A C13U, the “aptazyme ON/OFF ratio” value amounted to 1.06.

With U8G G9U U10C U11C C12U C13A, the “aptazyme ON/OFF ratio” value is 1.02.

Take U8G G9U U10C U11C C12U C13U: the “aptazyme ON/OFF ratio” value was 1.06.

In the case of U8G G9U U10C U11C C12U C13G, the “aptazyme ON/OFF ratio” value was determined as 1.02.

Consider U8G G9C U11A C12U C13A, for which the “aptazyme ON/OFF ratio” value came to 1.03.

With U8G G9C U11A C12U C13U, the “aptazyme ON/OFF ratio” value turned out to be 1.1.

Consider U8G G9C U11A C12U C13G, for which the “aptazyme ON/OFF ratio” value was 1.06.

As to U8G G9C U10C U11A, the “aptazyme ON/OFF ratio” value was found to be 1.07.

For the variant U8G G9C U10C U11C, the “aptazyme ON/OFF ratio” value stood at 1.04.

U8G G9C U10C U11G: the “aptazyme ON/OFF ratio” value amounted to 1.27.

Turning to U8G G9C U10A U11G C13U, the “aptazyme ON/OFF ratio” value was found to be 1.05.

For U8G G9C U10A U11G C13A, the “aptazyme ON/OFF ratio” value was 1.08.

With U8G G9C U10A U11G C13G, the “aptazyme ON/OFF ratio” value stood at 1.04.

Consider U8G G9U U10C U11C, for which the “aptazyme ON/OFF ratio” value came out at 1.05.

With U8G G9U U10C U11A, the “aptazyme ON/OFF ratio” value worked out at 1.27.

Consider U8G G9U U10C U11G, for which the “aptazyme ON/OFF ratio” value was found to be 1.15.

On to U8G G9U U10C U11G C12G C13G, for which the “aptazyme ON/OFF ratio” value was found to be 1.14.

Regarding U8G G9U U10C U11G C12G C13U, the “aptazyme ON/OFF ratio” value was 1.08.

Take U8G G9U U10C U11G C12G C13A: the “aptazyme ON/OFF ratio” value came out at 1.15.

For U8G G9C U10C U11A C12A C13G, the “aptazyme ON/OFF ratio” value turned out to be 1.07.

As to U8G G9C U10C U11A C12A C13A, the “aptazyme ON/OFF ratio” value was found to be 1.06.

Turning to U8G G9C U10C U11A C12A C13U, the “aptazyme ON/OFF ratio” value was 1.05.

For U8G G9U U10A U11G C12U C13G, the “aptazyme ON/OFF ratio” value was found to be 1.1.

With U8G G9U U10A U11G C12U C13A, the “aptazyme ON/OFF ratio” value was found to be 1.05.

With U8G G9U U10A U11G C12U C13U, the “aptazyme ON/OFF ratio” value was determined as 1.13.

Regarding U8G G9C U10G U11A C12U C13A, the “aptazyme ON/OFF ratio” value worked out at 1.16.

As to U8G G9C U10G U11A C12U C13G, the “aptazyme ON/OFF ratio” value was found to be 1.15.

As to U8G G9C U10G U11A C12U C13U, the “aptazyme ON/OFF ratio” value came to 1.12.

As to U8G G9C U10C U11G C13U, the “aptazyme ON/OFF ratio” value came to 1.16.

Turning to U8G G9C U10C U11G C13G, the “aptazyme ON/OFF ratio” value was determined as 1.1.

With U8G G9C U10C U11G C13A, the “aptazyme ON/OFF ratio” value was determined as 1.17.

Consider U8G G9U U10A U11C C12A C13G, for which the “aptazyme ON/OFF ratio” value was found to be 1.1.

Regarding U8G G9U U10A U11C C12A C13A, the “aptazyme ON/OFF ratio” value was determined as 1.1.

Regarding U8G G9U U10A U11C C12A C13U, the “aptazyme ON/OFF ratio” value worked out at 1.16.

For U8G G9C U10G U11C C12A C13U, the “aptazyme ON/OFF ratio” value worked out at 1.03.

Consider U8G G9C U10G U11C C12A C13G, for which the “aptazyme ON/OFF ratio” value is 1.04.

Take U8G G9C U10G U11C C12A C13A: the “aptazyme ON/OFF ratio” value came out at 1.04.

In the case of U8G G9U U10A U11G C13A, the “aptazyme ON/OFF ratio” value amounted to 1.09.

For the variant U8G G9U U10A U11G C13G, the “aptazyme ON/OFF ratio” value was found to be 1.03.

For U8G G9U U10A U11G C13U, the “aptazyme ON/OFF ratio” value came to 1.04.

In the case of U8G G9U U10C U11C C13U, the “aptazyme ON/OFF ratio” value was 1.02.

For U8G G9U U10C U11C C13G, the “aptazyme ON/OFF ratio” value was found to be 1.04.

In the case of U8G G9U U10C U11C C13A, the “aptazyme ON/OFF ratio” value came to 1.04.

Turning to U8G G9U U10A U11A C12A C13U, the “aptazyme ON/OFF ratio” value was 1.22.

Consider U8G G9U U10A U11A C12A C13G, for which the “aptazyme ON/OFF ratio” value came out at 1.16.

As to U8G G9U U10A U11A C12A C13A, the “aptazyme ON/OFF ratio” value was determined as 1.15.

U8G G9C U10G U11C C12U: the “aptazyme ON/OFF ratio” value was found to be 1.03.

Regarding U8G G9C U10G U11C C12A, the “aptazyme ON/OFF ratio” value came out at 1.05.

Take U8G G9C U10G U11C C12G: the “aptazyme ON/OFF ratio” value was found to be 1.03.

As to U8G G9C U10G U11G C12U C13G, the “aptazyme ON/OFF ratio” value was 1.14.

In the case of U8G G9C U10G U11G C12U C13A, the “aptazyme ON/OFF ratio” value came to 1.16.

Consider U8G G9C U10G U11G C12U C13U, for which the “aptazyme ON/OFF ratio” value was determined as 1.28.

As to U8G G9C U11C C12A, the “aptazyme ON/OFF ratio” value amounted to 1.05.

U8G G9C U11C C12U: the “aptazyme ON/OFF ratio” value was found to be 1.04.

In the case of U8G G9C U11C C12G, the “aptazyme ON/OFF ratio” value was found to be 1.04.

For U8G G9C U10C C12U C13G, the “aptazyme ON/OFF ratio” value turned out to be 1.05.

U8G G9C U10C C12U C13A: the “aptazyme ON/OFF ratio” value was 1.06.

In the case of U8G G9C U10C C12U C13U, the “aptazyme ON/OFF ratio” value was determined as 1.04.

With U8G G9U U10C C13U, the “aptazyme ON/OFF ratio” value turned out to be 1.03.

Consider U8G G9U U10C C13A, for which the “aptazyme ON/OFF ratio” value is 1.04.

As to U8G G9U U10C C13G, the “aptazyme ON/OFF ratio” value worked out at 1.03.

With U8G G9C U10C U11G C12G, the “aptazyme ON/OFF ratio” value was 1.1.

U8G G9C U10C U11G C12A: the “aptazyme ON/OFF ratio” value was found to be 1.07.

U8G G9C U10C U11G C12U: the “aptazyme ON/OFF ratio” value was 1.25.

As for U8G G9C U10C U11A C12U C13A, the “aptazyme ON/OFF ratio” value worked out at 1.04.

As for U8G G9C U10C U11A C12U C13U, the “aptazyme ON/OFF ratio” value came out at 1.04.

Regarding U8G G9C U10C U11A C12U C13G, the “aptazyme ON/OFF ratio” value was 1.02.

With U8G G9C U10C U11G C12G C13A, the “aptazyme ON/OFF ratio” value was determined as 1.08.

Turning to U8G G9C U10C U11G C12G C13U, the “aptazyme ON/OFF ratio” value was determined as 1.08.

On to U8G G9C U10C U11G C12G C13G, for which the “aptazyme ON/OFF ratio” value was 1.11.

As for U8G G9C U10G C13G, the “aptazyme ON/OFF ratio” value is 1.12.

Turning to U8G G9C U10G C13U, the “aptazyme ON/OFF ratio” value came to 1.24.

With U8G G9C U10G C13A, the “aptazyme ON/OFF ratio” value was 1.27.
